The results in this text go back to PMC4676722 (PLoS Genetics, 2015).

The experiment concerns the target T1, recombinant ovine wild type SOCS2 (Suppressor of Cytokine Signaling 2) (sheep (ovine), UniProt A0ACI6S499 1-198).
T1 construct: also called rOvSOCS2 WT; SOCS2-WT
T1 sequence (looked up): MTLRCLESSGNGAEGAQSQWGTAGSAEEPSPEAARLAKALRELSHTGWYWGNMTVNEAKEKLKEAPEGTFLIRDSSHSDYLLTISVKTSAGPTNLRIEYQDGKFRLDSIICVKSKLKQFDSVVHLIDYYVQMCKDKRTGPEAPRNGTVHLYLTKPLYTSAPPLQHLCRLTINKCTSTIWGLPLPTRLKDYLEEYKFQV
The experiment is described as follows: SPR; BIAcore T200, single-cycle kinetics; biotinylated GHR pY-peptide immobilised on SA chip (75 RU), scramble peptide as reference; five injections of SOCS2 protein 100 nM-8.1 μM, 120 s each; 1:1 Langmuir fit; 25°C, HBS-EP buffer. To be noted: both partners purified. (In SPR one partner is held on a chip, and binding of the other changes the refractive index at the surface.)

Where no end group is shown, it is not given here. [ ]: non-standard residue; d: D form. pY = N[C@@H](Cc1ccc(OP(=O)(O)O)cc1)C(=O)O

For orientation: koff means the rate constant with which the complex falls apart. Broadly, the kon is a measure of how fast the partners come together. Regarding PVPD[pY]TSIHIV (also: biotinylated, site not given here) [phosphorylated peptide from the growth hormone receptor (pY595 GHR), biotinylated], the koff stood at 0.0016 s⁻¹ and the kon turned out to be 828 M⁻¹ s⁻¹.
